Biological target: H1-HFBI: hemagglutinin ectodomain of influenza A/Texas/05/2009 (H1N1) fused to hydrophobin I (Influenza A/Texas/05/2009 (H1N1) virus | Trichoderma reesei) (UniProt P52754)
Experiment: SEC

“H1-HFBI: hemagglutinin ectodomain of influenza A/Texas/05/2009 (H1N1) fused to hydrophobin I (from UniProt P52754 23-97)” showed a ratio of HMWO/monomer of 2.

From publication PMC4277400
